Measured values reported in PMC10140023 (2023).

T1: GFP-POLD1 (human, UniProt P28340 1-1107)
T1 chain: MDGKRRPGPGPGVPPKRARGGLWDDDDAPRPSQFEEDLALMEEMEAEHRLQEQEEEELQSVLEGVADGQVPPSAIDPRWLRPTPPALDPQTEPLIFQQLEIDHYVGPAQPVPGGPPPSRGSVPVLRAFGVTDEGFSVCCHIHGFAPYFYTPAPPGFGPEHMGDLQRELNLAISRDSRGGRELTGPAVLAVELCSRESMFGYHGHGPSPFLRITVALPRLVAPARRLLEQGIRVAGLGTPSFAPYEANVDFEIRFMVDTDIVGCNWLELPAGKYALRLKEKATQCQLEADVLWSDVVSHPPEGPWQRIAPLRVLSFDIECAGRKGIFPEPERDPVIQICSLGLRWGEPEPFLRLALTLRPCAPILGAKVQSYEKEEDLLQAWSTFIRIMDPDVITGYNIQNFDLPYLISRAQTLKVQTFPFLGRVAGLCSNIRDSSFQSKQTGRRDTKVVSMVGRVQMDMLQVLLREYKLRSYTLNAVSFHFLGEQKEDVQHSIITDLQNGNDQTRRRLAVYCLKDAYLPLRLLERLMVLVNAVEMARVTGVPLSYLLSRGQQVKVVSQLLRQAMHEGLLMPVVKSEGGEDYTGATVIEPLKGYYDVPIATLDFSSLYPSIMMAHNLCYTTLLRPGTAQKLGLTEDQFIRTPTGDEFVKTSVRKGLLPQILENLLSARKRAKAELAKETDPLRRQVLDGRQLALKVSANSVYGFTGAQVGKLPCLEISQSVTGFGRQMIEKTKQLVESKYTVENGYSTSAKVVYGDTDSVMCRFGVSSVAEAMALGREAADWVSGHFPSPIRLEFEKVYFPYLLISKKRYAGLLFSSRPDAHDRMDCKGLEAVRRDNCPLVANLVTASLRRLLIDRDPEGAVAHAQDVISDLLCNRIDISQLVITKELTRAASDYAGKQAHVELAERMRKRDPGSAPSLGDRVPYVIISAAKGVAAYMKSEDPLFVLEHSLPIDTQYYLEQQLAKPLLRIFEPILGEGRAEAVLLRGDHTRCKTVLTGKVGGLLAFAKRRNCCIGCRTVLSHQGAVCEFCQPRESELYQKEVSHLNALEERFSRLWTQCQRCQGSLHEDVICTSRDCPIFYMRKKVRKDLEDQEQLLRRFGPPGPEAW


What was measured:
GFP-FBXW7α = GFP-FBXW7α (human, UniProt Q969H0 1-707); assay: MST
Chain of GFP-FBXW7α (Q969H0 whole entry): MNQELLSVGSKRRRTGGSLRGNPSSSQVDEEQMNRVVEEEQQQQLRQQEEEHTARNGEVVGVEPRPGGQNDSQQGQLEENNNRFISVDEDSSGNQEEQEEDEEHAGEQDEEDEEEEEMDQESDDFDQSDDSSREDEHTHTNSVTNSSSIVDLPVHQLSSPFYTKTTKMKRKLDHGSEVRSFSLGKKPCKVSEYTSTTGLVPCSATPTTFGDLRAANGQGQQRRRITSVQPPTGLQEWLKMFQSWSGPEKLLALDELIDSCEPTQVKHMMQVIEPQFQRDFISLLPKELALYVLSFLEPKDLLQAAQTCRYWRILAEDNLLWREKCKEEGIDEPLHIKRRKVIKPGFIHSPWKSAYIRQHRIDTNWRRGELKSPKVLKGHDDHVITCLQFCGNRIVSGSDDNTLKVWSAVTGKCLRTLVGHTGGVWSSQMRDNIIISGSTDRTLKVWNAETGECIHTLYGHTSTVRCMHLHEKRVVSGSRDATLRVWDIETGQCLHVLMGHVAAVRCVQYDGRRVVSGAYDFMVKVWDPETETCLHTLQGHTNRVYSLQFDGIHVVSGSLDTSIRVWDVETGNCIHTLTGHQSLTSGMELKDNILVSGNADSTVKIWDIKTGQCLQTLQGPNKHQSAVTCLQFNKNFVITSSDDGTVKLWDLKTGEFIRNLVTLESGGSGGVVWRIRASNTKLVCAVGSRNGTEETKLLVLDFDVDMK

GFP-POLD1 = target: T1, GFP-POLD1; assay: MST

Row | Kd (GFP-FBXW7α) [µM] | Kd (GFP-POLD1) [µM] | Binder
1 | 700 | 34.5 | APSEDIWKKFELLPTPPLSP [MYC-MB1 (WT) peptide]
2 | 110 | 30.8 | APSEDIWKKFELLPDPPLSP [MB1-T58D peptide]
3 | 2160 | 49.9 | APSEDIWKKFELLPAPPLSP [MB1-T58A peptide]
